Experiments:
Experiment in all cases: EMSA
Rad52 = Rad52 (Saccharomyces cerevisiae, UniProt P06778)
Rad52 (K253R) = Rad52 (K253R) (Saccharomyces cerevisiae, UniProt P06778 1-471, K220R)
Rad52 (K43,44R) = Rad52 (K43,44R) (Saccharomyces cerevisiae, UniProt P06778 1-471, K10R;K11R)
Rad52 (K43,44,253R) = Rad52 (K43,44,253R) (Saccharomyces cerevisiae, UniProt P06778 1-471, K10R;K11R;K220R)

Measured: binding result

B1: 49-mer ssDNA (Oligo-3) (ssDNA)
DNA: AGCTACCATGCCTGCACGAATTAAGCAATTCGTAATCATGGTCATAGCT
binds: Rad52 | Rad52 (K253R) | Rad52 (K43,44R) | Rad52 (K43,44,253R)

Source: article PMC2919706
